Results from US20250340649A1 (RUTGERS THE STATE UNIVERSITY OF NEW JERSEY, published 2025).
Read-outs that look alike come from different tables or passages of the source.

Experiments:
[1] = target: HER2 on the surface of HER2+ cancer cells (BT474, SKOV-3) (human) (UniProt P04626); test: flow cytometry on BT-474 cells (HER2+)
[2] = target: HER2 on the surface of HER2+ cancer cells (BT474, SKOV-3) (human) (UniProt P04626); test: flow cytometry on SKOV-3 cells (HER2+)
[3] = target: T1, CD16a on NK92 (CD16+) cells (human, UniProt P08637 17-254); test: flow cytometry, NK92 cells (CD16a+)
T1 construct: whole, on cells; also called NK92 cells (CD16a+); haNK92 cells (CD16a+)
T1 sequence (P08637 17-254 F176V): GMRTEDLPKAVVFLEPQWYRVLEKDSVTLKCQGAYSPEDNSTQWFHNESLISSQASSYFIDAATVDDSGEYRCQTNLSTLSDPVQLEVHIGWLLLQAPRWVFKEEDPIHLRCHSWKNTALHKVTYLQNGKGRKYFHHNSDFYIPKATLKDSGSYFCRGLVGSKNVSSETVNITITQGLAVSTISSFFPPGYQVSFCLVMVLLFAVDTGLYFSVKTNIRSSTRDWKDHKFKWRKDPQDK

[4] = target: T2, CD16b on neutrophils (human, UniProt O75015 17-200); test: flow cytometry, neutrophils (CD16b+)
T2 construct: whole, on cells; also called neutrophils (CD16b+)
T2 sequence (O75015 17-200): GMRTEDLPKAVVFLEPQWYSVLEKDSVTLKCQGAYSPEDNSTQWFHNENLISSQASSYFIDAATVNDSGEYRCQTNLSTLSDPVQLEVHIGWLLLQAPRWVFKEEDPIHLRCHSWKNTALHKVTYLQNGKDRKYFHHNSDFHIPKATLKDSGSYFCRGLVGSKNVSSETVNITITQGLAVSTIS

[5] = target: T2, CD16b on neutrophils; test: flow cytometry, neutrophils (CD16b+); value of the drawn table
[6] = target: T2, CD16b on neutrophils; test: flow cytometry, neutrophils (CD16b+); value at the PE-H- gate inside the histogram
[7] = target: T2, CD16b on neutrophils; test: flow cytometry on neutrophils (CD16b+)
Description: For flow cytometry, haNK92 cells (CD16a+) and Neutrophils (CD16b⁺) were used. […] The human Neutrophil cells were purchased from HemaCare and cultured according to the manufacturer's protocol. First, both cell lines were harvested and washed once using DPBS supplemented with 2% FBS (2% DPBS-FBS). For each sample, 0.5×10⁶ cells were stained with antibody on ice for 60 min. In this experiment, 3G8 monoclonal antibody was used as a positive control. This antibody binds to both CD16a and CD16b. Following washing three times, the secondary antibody, anti-Histag antibody FITC labeled, was added. After washing, the samples were run on Cytoflex using FL2 channel.
In this experiment, NK92 cells (CD16a⁺), neutrophils (CD16b⁺), and B cells (CD32b⁺) were used as cell controls. 3G8 (anti-CD16a/b) and AT10 (anti-CD32a/b) mAbs were used as antibody controls.

[8] = target: T3, biotinylated CD32b (UniProt P31994 46-217, biotinylated); test: ELISA, biotinylated antigen on streptavidin plate
T3 construct: also called CD32b antigen
T3 sequence (looked up): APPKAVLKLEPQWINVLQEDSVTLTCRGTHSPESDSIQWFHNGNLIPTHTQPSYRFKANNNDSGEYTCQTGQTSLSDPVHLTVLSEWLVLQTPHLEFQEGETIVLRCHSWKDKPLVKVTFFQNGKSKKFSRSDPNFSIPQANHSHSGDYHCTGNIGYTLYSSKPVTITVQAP
Description: The purified VHHs were subjected to functional analysis using ELISA and flow cytometry. For ELISA, 50 μL of biotinylated CD16a, CD16b-NA1, CD16b-NA2, and CD32b were added to the streptavidin-coated plate and incubated for 45 min at RT. Following washing, the 100 μL of 100 nM purified VHHs were added and incubated at RT for 1 h. Next, 100 μL anti-HA tag HRP conjugated secondary antibody was added. Finally, the substrate was added for color development, and the plate was read using OD of 450 nm.
CD32b and skim milk were also used as antigen controls. 3G8 and eBioCB16, which are anti-CD16a/b mAbs were used as antibody controls. […] CD32b is a receptor that is expressed on B cells and responsible for inhibiting B cell activation. One of the disadvantages of mAb-based therapies is the binding of their Fc region to CD32b leading to the diminished activity of humoral immunity.

[9] = target: T4, Biotinylated Human Fc gamma RIIIA/CD16a (F176) Protein, Avitag, His Tag (Acrobiosystems CDA-H82E8) (human, UniProt P08637 17-208, biotinylated (Avitag)); test: BLI (Octet), biotinylated CD16a on streptavidin sensor, VHH 1.875-60 nM
T4 construct: also called biotinylated CD16a; CD16a antigen
T4 sequence (P08637 17-208 limits assumed): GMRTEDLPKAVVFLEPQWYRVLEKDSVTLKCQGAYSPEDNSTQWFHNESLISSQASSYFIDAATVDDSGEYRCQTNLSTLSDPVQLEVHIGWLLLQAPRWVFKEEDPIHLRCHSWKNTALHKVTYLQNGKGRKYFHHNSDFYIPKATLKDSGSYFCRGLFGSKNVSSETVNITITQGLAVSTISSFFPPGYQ
Description: (§1) An Octet® Streptavidin (SA) Biosensor was soaked for at least 10 min in DPBS supplemented with 0.1% Casein, biotinylated CD16a, CD16b-NA1, CD16b-NA2, and HER2 antigens were loaded onto the streptavidin (SA) biosensor until 1 nm shift was reached. Next, the sensor was dipped into the washing buffer (DPBS+0.05% Tween 20+0.1% Casein) for 2 min to reach the baseline. […] Then, in the dissociation step, sensors were dipped into the washing buffer for 5 min to acquire data (Table 5). The data were then analyzed using Octet Data Analysis HT 11.1 software. The sensorgrams were subtracted from the reference and fitted into 1:1 binding model for data analysis. Finally, the affinity and kinetics were analyzed using “Association and Dissociation”.

[10] = target: T5, Biotinylated Human Fc gamma RIIIB/CD16b (NA1) Protein, His, Avitag (Acrobiosystems CDB-H82E4) (human, UniProt O75015 17-200, biotinylated (Avitag)); test: BLI (Octet), biotinylated CD16b-NA1 on streptavidin sensor, VHH 1.875-60 nM
T5 construct: NA1 allele; also called CD16b-NAI
T5 sequence (O75015 other isoform, or with tags, fused parts or gaps limits assumed): as the sequence (O75015 17-200) above, with S20R, N66D, I90V counted along it
Description: as §1

[11] = target: T6, Biotinylated Human Her2/ErbB2 Protein, His, Avitag (AcroBiosystem HE2-H82E2) (human, UniProt P04626 23-652, biotinylated (Avitag)); test: BLI (Octet), biotinylated HER2 on streptavidin sensor
T6 construct: Bought protein; Loaded on streptavidin sensors for BLI; also called biotinylated HER2; HER2 antigen

[12] = target: T7, HER2 on the surface of HER2+ cancer cells (BT474, SKOV-3) (human, UniProt P04626 23-1255); test: flow cytometry on BT-474 cells (HER2+), 100 nM binding sites
T7 construct: whole, on cells; also called human epidermal growth factor receptor 2
Description: (§2) OVASC-1 is an ascites-derived epithelial ovarian cancer cells obtained from a patient with advanced metastatic disease (11, 12). The expressed VHHs were then incubated with HER2⁺ (BT474, JIMT-1, and SKOV-3) and HER2⁻ (MDA-MB-231) cancer cell lines. Approximately 10⁶ cells were counted and washed using DPBS-1% FBS. […] After washing, FITC-conjugated anti-Human IgG or anti-Histag antibody were added and incubated on ice for 60 min. Cells were washed three times and then analyzed using Beckman-Coulter Gallios flow cytometer at Rutgers Flow cytometry core facility.
(§3) In the next step, the ability of the VHHs to recognize and bind to HER2 on the surface of HER2+ cancer cells was evaluated. […] MDA-MB-231 and OVASC-1 (HER2⁻) cancer cells were used as negative controls.

[13] = target: T7, HER2 on the surface of HER2+ cancer …; test: flow cytometry on SKOV-3 cells (HER2+), 100 nM binding sites
Description: as §2, §3

[14] = target: T8, HER1 (human, UniProt P00533 25-645); test: ELISA, periplasmic extract on coated antigen, anti-HA-HRP
T8 construct: The text says only 'HER1'; also called Recombinant human EGFR protein (Fc Chimera), Abcam ab155726; Fc part of the bought chimera not given
From the text: (§4) FIGS. 4A-4B. FIG. 4A) PBMCs were isolated using Ficoll-Paque method. Then, the RNAs were extracted, cDNA library was generated, genes amplified, and then cloned into pMECS-GG phagemids. The phagemids were used in phage display and the screened candidates were used to infect TG1 bacteria. Colonies were selected, grown, lysed, and the lysates removed. FIG. 4B) The lysates were then used in ELISA to screen for VHHs with the highest affinity to HER2 and with negligible binding to HER1, HER3, and HER4. Bovine serum albumin (BSA) and skim milk were used as controls.
(§5) The next day, each well was washed three times with washing buffer (DPBS+0.1% Tween 20) and then incubated with blocking buffer (2% skimmed milk) for 2 h at RT to block the free binding sites. Next, blocking buffer was replaced with 100 μL of periplasmic extract from above and incubated for 1 h at RT while shaking at 700 rpm. Each well was washed six times with washing buffer (DPBS+0.1% Tween 20) followed by addition of 100 μL HRP Anti-HA tag antibody (1:10000 dilution) and incubation for 1 h at RT while shaking at 700 rpm. Each well was washed again six times, followed by addition of 50 μL 1-Step™ Turbo TMB-ELISA substrate solution at incubation at RT for 15 min (without shaking and at dark). The reaction was stopped by adding 50 μL of stop solution ([…] sulfuric acid) and the plate was read at 450 nm using 630 nm as a reference (450/630 nm).

[15] = target: T9, HER3 (human, UniProt P21860 20-643, limits assumed); test: as above
T9 construct: also called Recombinant Human ErbB 3 protein, Abcam ab196072
From the text: as §4, §5

[16] = target: T10, Bovine serum albumin (bovine, UniProt P02769 25-607); test: as above
T10 construct: Control antigen; also called BSA
T10 sequence (P02769 25-607 limits assumed): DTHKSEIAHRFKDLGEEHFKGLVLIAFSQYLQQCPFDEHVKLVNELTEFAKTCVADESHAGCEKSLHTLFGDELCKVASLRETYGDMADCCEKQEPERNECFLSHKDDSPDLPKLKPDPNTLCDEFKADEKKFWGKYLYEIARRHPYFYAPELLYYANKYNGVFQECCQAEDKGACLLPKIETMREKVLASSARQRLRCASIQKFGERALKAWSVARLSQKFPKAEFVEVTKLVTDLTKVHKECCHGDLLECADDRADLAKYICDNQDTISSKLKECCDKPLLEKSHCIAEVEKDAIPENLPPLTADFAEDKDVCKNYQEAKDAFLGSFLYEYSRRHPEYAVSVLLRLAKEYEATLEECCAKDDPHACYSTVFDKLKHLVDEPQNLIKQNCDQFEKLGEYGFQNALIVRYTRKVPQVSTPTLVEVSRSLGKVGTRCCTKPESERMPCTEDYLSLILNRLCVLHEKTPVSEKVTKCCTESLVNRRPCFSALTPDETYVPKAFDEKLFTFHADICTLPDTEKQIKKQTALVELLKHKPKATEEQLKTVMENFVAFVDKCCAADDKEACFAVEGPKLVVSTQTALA
From the text: as §4, §5

[17] = target: T6, Biotinylated Human Her2/ErbB2 Protein, …; test: BLI (Octet), biotinylated HER2 on streptavidin sensor, VHH 1.875-60 nM
[18] = target: T11, HER2 protein (coated on ELISA plate) (human, UniProt P04626 23-652, limits assumed); test: ELISA, periplasmic extract on coated antigen, anti-HA-HRP
T11 construct: also called HER2 antigen
From the text: as §4, §5

[19] = target: T6, Biotinylated Human Her2/ErbB2 Protein, …; test: BLI (Octet), biotinylated HER2 on streptavidin sensor, VHH 1.875-60 nM; remark: listed apart in the source
[20] = target: T7, HER2 on the surface of HER2+ cancer …; test: flow cytometry, SKOV-3 (HER2+) cells, tenfold dilutions 0.001-1000 nM
[21] = target: T6, Biotinylated Human Her2/ErbB2 Protein, …; test: ELISA on HER2, tenfold dilutions 0-1000 nM; the HER2 form is not stated for this ELISA, Table 17 lists only the biotinylated HER2

Isotype (antibody)
FITC+ (%) [1]: 0.45% | FITC- (%) [1]: 99.6% | Mean (MFI) [1]: 935 | FITC+ (%) [2]: 0.97% | FITC- (%) [2]: 99% | Mean (MFI) [2]: 915 | FITC+ [3]: 0.71% | FITC- [3]: 99.3% | MFI [3]: 25000 | MFI [4]: 867 | PE+ [4]: 4.42% | PE- [5]: 90.6% | PE- [6]: 95.6%

B1: E3 anti-CD16a VHH (VHH)
VHH: QVQLQESGGGLVQAGGSARLSCAASGRTFRLYRMGWFRQAPGKEREFVASIKMIDGSSLFGDPVKGRFTISRDNTKFMVYLQMNSLKPEDTAVYYCASVSRNTGSWDSWGQGTQVTVSSYPYDVPDYAHHHHHHHH
notes: also called E3 clone; E3 VHH
binding result [7]: no binding | binding result [8]: no binding (tested: 100 nM) | Kd [9]: 0.579 nM | koff [9]: 0.000294 s⁻¹ | kon [9]: 505000 M⁻¹ s⁻¹ | Kd [10]: 31.7 nM | koff [10]: 0.0131 s⁻¹ | kon [10]: 412000 M⁻¹ s⁻¹

B2: A1 anti-HER2 VHH (VHH)
VHH: QVQLQESGGGLVQPGGSLRLSCAASGHTLSTYVVAWFRQAPGKERESVAAIGWSSRSPYYPDSVKGRFTISEDNTKNTVYLQMNSLKPDDTAVYYCAADSYPRRWDRESDFGSWGQGTQVTVSS
notes: Llama VHH expressed in WK6 E. coli with C-terminal c-myc and His tags; also called A1 clone
Kd [11]: 1.3 nM | FITC+ (%) [12]: 98.8% | FITC- (%) [12]: 1.23% | Mean (MFI) [12]: 97000 | FITC+ (%) [13]: 94.1% | FITC- (%) [13]: 5.78% | Mean (MFI) [13]: 101000 | binding result [14]: no binding (tested: extract, conc. not given) | binding result [15]: no binding (tested: extract, conc. not given) | binding result [16]: no binding (tested: extract, conc. not given) | Kd [17]: 1.32 nM | koff [17]: 0.000411 s⁻¹ | kon [17]: 309000 M⁻¹ s⁻¹

B3: A3 (VHH)
VHH: QVQLQESGGGLVQAGGSLRISCAASGRTSDLFPVGWFRQAPGKEREIVAAIRWSGGVIGYGDPVKGRFTISTDNAKNTVYLQMNSLKPEDTAVYYCAAGPRESTVTWNYWGQGTHVTVSS
notes: not the anti-CD16a clone A3; also called A3 anti-HER2 VHH
binding result [18]: binds | binding result [14]: no binding (tested: extract, conc. not given) | binding result [15]: no binding (tested: extract, conc. not given) | binding result [16]: no binding (tested: extract, conc. not given)

B4: E5 anti-HER2 VHH (VHH)
VHH: QVQLQESGGGLVQAGGSLRLDCAASGRTLSSYVVGWFRQAPGKEREVVAAIGWSRTSTFYTDSVKGRFTISRDNTENTVYLQMNSLKPGDTAVYYCAADSSPRRWDRESDFGSWGQGTQVTVSS
notes: also called E5 clone
Kd [11]: 0.724 nM | FITC+ (%) [12]: 98.4% | FITC- (%) [12]: 1.59% | Mean (MFI) [12]: 102000 | FITC+ (%) [13]: 93.3% | FITC- (%) [13]: 6.45% | Mean (MFI) [13]: 106000 | binding result [14]: no binding (tested: extract, conc. not given) | binding result [15]: no binding (tested: extract, conc. not given) | binding result [16]: no binding (tested: extract, conc. not given) | koff [19]: 0.000702 s⁻¹ | kon [19]: 969000 M⁻¹ s⁻¹ | EC50 (read off the curve) [20]: ~1 nM | EC50 (read off the curve) [21]: ~0.3 nM
